In article PMC6411835 (Nucleic Acids Research, 2018):
Values belong to the binder of their own block, whether it stands above or below them.

B1: Zip2^499–704 (domain or fragment)
chain: ENKCIAVNENKVIENQKVIQSLCKNSHLDLIEQSYFGECDFIINHSTCVYKIQASRFMQLRNNGSLHYDKAVNDLLTEFQRVIIIVEFSEIIQDVDPDLFWKIKLYLLNSRVDVFFIHETTDFFIDWMKYFIARWAFSYNDEKEKNIANADILLDLGFNILLVRKIFQTYSLEEFFMAIIKEESKAVKMLTVSQMTRLKKLLTLEW
B2: His6-Spo16 (natural protein)
chain: SEFFWDVQKIQEISNVEEHSVVKCVTVNTSRLISQLNEELQDEESGVNFIVTQLQLLINNVYEKIQKSPGVPAHRSLMINLNFTRLKFSIAYWDILLERSLDLINGPSKTGARYFITEVTPVDRSRYVENNQYFLAFKANQRLTRNSVDMDEFIDFEILIKQIIFDLFKKNGIPDQDFEAILSRFHNLESLVVAFNE

Tests used:
[1] = molecular target: B2; test: SEC-MALS
[2] = molecular target: B1; test: co-purification after co-expression
[3] = molecular target: T1, surface-lysine methylated Zip2^499–704 (S. cerevisiae, UniProt P53061 499-704); test: crystal structure
T1 sequence: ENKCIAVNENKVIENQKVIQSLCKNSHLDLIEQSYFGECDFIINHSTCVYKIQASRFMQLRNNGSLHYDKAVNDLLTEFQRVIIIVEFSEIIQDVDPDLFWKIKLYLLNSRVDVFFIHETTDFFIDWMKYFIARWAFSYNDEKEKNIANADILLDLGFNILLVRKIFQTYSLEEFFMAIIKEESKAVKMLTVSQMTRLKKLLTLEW

Binder: B1
- stoichiometry N [1]: 1

Binder: B2
- binding result [2]: binds

- binding result [3]: binds
B3: surface-lysine methylated His6-Spo16 (natural protein)
chain: SEFFWDVQKIQEISNVEEHSVVKCVTVNTSRLISQLNEELQDEESGVNFIVTQLQLLINNVYEKIQKSPGVPAHRSLMINLNFTRLKFSIAYWDILLERSLDLINGPSKTGARYFITEVTPVDRSRYVENNQYFLAFKANQRLTRNSVDMDEFIDFEILIKQIIFDLFKKNGIPDQDFEAILSRFHNLESLVVAFNE
modifications: surface lysine residues dimethylated (dimethyllysine)
